{"source": "patent US20260176254A1", "about": "“INHIBITORS OF PROSTATE SPECIFIC MEMBRANE ANTIGEN AND USE THEREOF” (SHANGHAI SINOTAU BIOTECH. CO., LTD, priority 2023, published 2026)", "key": {"[1]": {"test_system": "22RV1 CDX xenograft tumor", "assay": "Tissue biodistribution in 22Rv1 tumor mouse model", "set-up": "species or system mice", "details": "male, nude, in vivo, iv", "source_text": "(§1) LnCAP and 22RV1 CDX xenograft tumor models were generated by inoculating 5×10^6 cells/site subcutaneously in male SCID or nude mice (Vital River), respectively. Animals were housed according to IACUC guidance and had accessed to food and water ad libitium. Animals were used for biodistribution study when the tumor dimensions reached around 0.2-0.3 cm^3. […] At each tome point, animals were sacrificed and tissues were collected, weighted, and subjected to radioactivity measurements using gamma counter. Radioactivity in the tissues was presented in % ID/g (percent of injected dose per gram)."}, "[2]": {"assay": "Tissue biodistribution in 22Rv1 tumor mouse model", "set-up": "species or system mice", "details": "male, nude, in vivo, iv, total radioactivity", "source_text": "as §1"}, "[3]": {"details": "Tissue biodistribution: Salivary Gland"}}}
{"smiles": "O=C(O)CN1CCN(CC(=O)O)CCN(CC(=O)NC23CCC(Nc4c(N[C@@H](Cc5c6ccccc6cc6ccccc56)C(=O)NCCCC[C@H](NC(=O)N[C@@H](CNC(=O)C(=O)O)C(=O)O)C(=O)O)c(=O)c4=O)(CC2)CC3)CCN(CC(=O)O)CC1", "note": "[[^177Lu]Lu-E8, metal not drawn]", "values": [{"measurement": "T/NT ratio Tumor/Blood", "setting": "[1]", "value": 497.77}, {"measurement": "T/NT ratio Tumor/Salivary Gland", "setting": "[1]", "value": 183.55}, {"measurement": "tissue uptake dose at 2 h", "setting": "[2]", "value": "8.22 ± 0.38", "unit": "%ID"}, {"measurement": "tissue uptake dose at 6 h", "setting": "[2]", "value": "5.13 ± 0.24", "unit": "%ID"}, {"measurement": "tissue uptake dose at 24 h", "setting": "[2]", "value": "2.13 ± 0.07", "unit": "%ID"}, {"measurement": "tissue uptake dose at 72 h", "setting": "[2]", "value": "0.81 ± 0.01", "unit": "%ID"}, {"measurement": "tissue uptake dose at 168 h", "setting": "[2]", "value": "1.34 ± 0.01", "unit": "%ID"}, {"measurement": "tissue to tissue ratio", "setting": "[2]; T/NT ratio Tumor/Blood", "value": 570}, {"measurement": "tissue to tissue ratio", "setting": "[2]; T/NT ratio Tumor/Salivary Gland", "value": 201}, {"measurement": "tissue uptake at 2 h", "setting": "[2]; Tissue biodistribution: Blood", "value": "0.4 ± 0.14", "unit": "%ID/g"}, {"measurement": "tissue uptake at 6 h", "setting": "[2]; Tissue biodistribution: Blood", "value": "0.08 ± 0.04", "unit": "%ID/g"}, {"measurement": "tissue uptake at 24 h", "setting": "[2]; Tissue biodistribution: Blood", "value": 0.03, "unit": "%ID/g"}, {"measurement": "tissue uptake at 72 h", "setting": "[2]; Tissue biodistribution: Blood", "value": 0.02, "unit": "%ID/g"}, {"measurement": "tissue uptake at 168 h", "setting": "[2]; Tissue biodistribution: Blood", "value": "0.02 ± 0.01", "unit": "%ID/g"}, {"measurement": "tissue uptake at 2 h", "setting": "[2]; Tissue biodistribution: Bone", "value": "0.47 ± 0.09", "unit": "%ID/g"}, {"measurement": "tissue uptake at 6 h", "setting": "[2]; Tissue biodistribution: Bone", "value": "0.26 ± 0.03", "unit": "%ID/g"}, {"measurement": "tissue uptake at 24 h", "setting": "[2]; Tissue biodistribution: Bone", "value": "0.26 ± 0.04", "unit": "%ID/g"}, {"measurement": "tissue uptake at 72 h", "setting": "[2]; Tissue biodistribution: Bone", "value": "0.34 ± 0.01", "unit": "%ID/g"}, {"measurement": "tissue uptake at 168 h", "setting": "[2]; Tissue biodistribution: Bone", "value": "0.43 ± 0.1", "unit": "%ID/g"}, {"measurement": "tissue uptake at 2 h", "setting": "[2]; Tissue biodistribution: Heart", "value": "0.57 ± 0.28", "unit": "%ID/g"}, {"measurement": "tissue uptake at 6 h", "setting": "[2]; Tissue biodistribution: Heart", "value": "0.1 ± 0.01", "unit": "%ID/g"}, {"measurement": "tissue uptake at 24 h", "setting": "[2]; Tissue biodistribution: Heart", "value": 0.07, "unit": "%ID/g"}, {"measurement": "tissue uptake at 72 h", "setting": "[2]; Tissue biodistribution: Heart", "value": "0.07 ± 0.01", "unit": "%ID/g"}, {"measurement": "tissue uptake at 168 h", "setting": "[2]; Tissue biodistribution: Heart", "value": "0.08 ± 0.01", "unit": "%ID/g"}, {"measurement": "tissue uptake at 2 h", "setting": "[2]; Tissue biodistribution: Kidney", "value": "136 ± 16.7", "unit": "%ID/g"}, {"measurement": "tissue uptake at 6 h", "setting": "[2]; Tissue biodistribution: Kidney", "value": "56.5 ± 18.9", "unit": "%ID/g"}, {"measurement": "tissue uptake at 24 h", "setting": "[2]; Tissue biodistribution: Kidney", "value": "5.86 ± 1.87", "unit": "%ID/g"}, {"measurement": "tissue uptake at 72 h", "setting": "[2]; Tissue biodistribution: Kidney", "value": "0.99 ± 0.04", "unit": "%ID/g"}, {"measurement": "tissue uptake at 168 h", "setting": "[2]; Tissue biodistribution: Kidney", "value": "0.26 ± 0.01", "unit": "%ID/g"}, {"measurement": "tissue uptake at 2 h", "setting": "[2]; Tissue biodistribution: Liver", "value": "0.34 ± 0.07", "unit": "%ID/g"}, {"measurement": "tissue uptake at 6 h", "setting": "[2]; Tissue biodistribution: Liver", "value": "0.19 ± 0.03", "unit": "%ID/g"}, {"measurement": "tissue uptake at 24 h", "setting": "[2]; Tissue biodistribution: Liver", "value": "0.18 ± 0.05", "unit": "%ID/g"}, {"measurement": "tissue uptake at 72 h", "setting": "[2]; Tissue biodistribution: Liver", "value": "0.22 ± 0.01", "unit": "%ID/g"}, {"measurement": "tissue uptake at 168 h", "setting": "[2]; Tissue biodistribution: Liver", "value": "0.23 ± 0.08", "unit": "%ID/g"}, {"measurement": "tissue uptake at 2 h", "setting": "[2]; Tissue biodistribution: Lung", "value": "1.14 ± 0.31", "unit": "%ID/g"}, {"measurement": "tissue uptake at 6 h", "setting": "[2]; Tissue biodistribution: Lung", "value": "0.32 ± 0.11", "unit": "%ID/g"}, {"measurement": "tissue uptake at 24 h", "setting": "[2]; Tissue biodistribution: Lung", "value": "0.12 ± 0.02", "unit": "%ID/g"}, {"measurement": "tissue uptake at 72 h", "setting": "[2]; Tissue biodistribution: Lung", "value": "0.09 ± 0.01", "unit": "%ID/g"}, {"measurement": "tissue uptake at 168 h", "setting": "[2]; Tissue biodistribution: Lung", "value": "0.07 ± 0.02", "unit": "%ID/g"}, {"measurement": "tissue uptake at 2 h", "setting": "[2]; Tissue biodistribution: Muscle", "value": "0.23 ± 0.03", "unit": "%ID/g"}, {"measurement": "tissue uptake at 6 h", "setting": "[2]; Tissue biodistribution: Muscle", "value": "0.08 ± 0.01", "unit": "%ID/g"}, {"measurement": "tissue uptake at 24 h", "setting": "[2]; Tissue biodistribution: Muscle", "value": 0.03, "unit": "%ID/g"}, {"measurement": "tissue uptake at 72 h", "setting": "[2]; Tissue biodistribution: Muscle", "value": 0.02, "unit": "%ID/g"}, {"measurement": "tissue uptake at 168 h", "setting": "[2]; Tissue biodistribution: Muscle", "value": "0.03 ± 0.01", "unit": "%ID/g"}, {"measurement": "tissue uptake at 2 h", "setting": "[2]; [3]", "value": "0.57 ± 0.19", "unit": "%ID/g"}, {"measurement": "tissue uptake at 6 h", "setting": "[2]; [3]", "value": "0.2 ± 0.07", "unit": "%ID/g"}, {"measurement": "tissue uptake at 24 h", "setting": "[2]; [3]", "value": 0.08, "unit": "%ID/g"}, {"measurement": "tissue uptake at 72 h", "setting": "[2]; [3]", "value": "0.09 ± 0.01", "unit": "%ID/g"}, {"measurement": "tissue uptake at 168 h", "setting": "[2]; [3]", "value": "0.06 ± 0.01", "unit": "%ID/g"}, {"measurement": "tissue uptake at 2 h", "setting": "[2]; Tissue biodistribution: Spleen", "value": "6.44 ± 3.19", "unit": "%ID/g"}, {"measurement": "tissue uptake at 6 h", "setting": "[2]; Tissue biodistribution: Spleen", "value": "0.88 ± 0.26", "unit": "%ID/g"}, {"measurement": "tissue uptake at 24 h", "setting": "[2]; Tissue biodistribution: Spleen", "value": "0.28 ± 0.05", "unit": "%ID/g"}, {"measurement": "tissue uptake at 72 h", "setting": "[2]; Tissue biodistribution: Spleen", "value": "0.35 ± 0.01", "unit": "%ID/g"}, {"measurement": "tissue uptake at 168 h", "setting": "[2]; Tissue biodistribution: Spleen", "value": "0.39 ± 0.11", "unit": "%ID/g"}, {"measurement": "tissue uptake at 2 h", "setting": "[2]; Tissue biodistribution: Tumor", "value": "19.7 ± 9.31", "unit": "%ID/g"}, {"measurement": "tissue uptake at 6 h", "setting": "[2]; Tissue biodistribution: Tumor", "value": "18.8 ± 1.68", "unit": "%ID/g"}, {"measurement": "tissue uptake at 24 h", "setting": "[2]; Tissue biodistribution: Tumor", "value": "22.7 ± 7.83", "unit": "%ID/g"}, {"measurement": "tissue uptake at 72 h", "setting": "[2]; Tissue biodistribution: Tumor", "value": "24.3 ± 1.92", "unit": "%ID/g"}, {"measurement": "tissue uptake at 168 h", "setting": "[2]; Tissue biodistribution: Tumor", "value": "11.9 ± 4.35", "unit": "%ID/g"}, {"measurement": "tissue to tissue ratio at 2 h", "setting": "[2]; Tumor/Blood", "value": "62.7 ± 54.4"}, {"measurement": "tissue to tissue ratio at 6 h", "setting": "[2]; Tumor/Blood", "value": "277 ± 98.9"}, {"measurement": "tissue to tissue ratio at 24 h", "setting": "[2]; Tumor/Blood", "value": "754 ± 166"}, {"measurement": "tissue to tissue ratio at 72 h", "setting": "[2]; Tumor/Blood", "value": "1120 ± 40"}, {"measurement": "tissue to tissue ratio at 168 h", "setting": "[2]; Tumor/Blood", "value": "555 ± 353"}, {"measurement": "tissue to tissue ratio at 2 h", "setting": "[2]; Tumor/Bone", "value": "41.5 ± 19.5"}, {"measurement": "tissue to tissue ratio at 6 h", "setting": "[2]; Tumor/Bone", "value": "73.6 ± 6.68"}, {"measurement": "tissue to tissue ratio at 24 h", "setting": "[2]; Tumor/Bone", "value": "87.2 ± 16.1"}, {"measurement": "tissue to tissue ratio at 72 h", "setting": "[2]; Tumor/Bone", "value": "72.1 ± 4.85"}, {"measurement": "tissue to tissue ratio at 168 h", "setting": "[2]; Tumor/Bone", "value": "27.7 ± 7.2"}, {"measurement": "tissue to tissue ratio at 2 h", "setting": "[2]; Tumor/Kidney", "value": "0.15 ± 0.09"}, {"measurement": "tissue to tissue ratio at 6 h", "setting": "[2]; Tumor/Kidney", "value": "0.35 ± 0.11"}, {"measurement": "tissue to tissue ratio at 24 h", "setting": "[2]; Tumor/Kidney", "value": "3.97 ± 0.93"}, {"measurement": "tissue to tissue ratio at 72 h", "setting": "[2]; Tumor/Kidney", "value": "24.5 ± 2.46"}, {"measurement": "tissue to tissue ratio at 168 h", "setting": "[2]; Tumor/Kidney", "value": "45.6 ± 16.3"}]}
